Where “and” joins values, the source holds several entries; their conditions need not be identical. Equal values may be shown once.
Target: the molecule itself
Experiment: single-particle cryo-EM 2D classification

B1: Escherichia coli glutamine synthetase (enzyme, UniProt P0A9C5 1-469, looked up)
chain: MSAEHVLTMLNEHEVKFVDLRFTDTKGKEQHVTIPAHQVNAEFFEEGKMFDGSSIGGWKGINESDMVLMPDASTAVIDPFFADSTLIIRCDILEPGTLQGYDRDPRSIAKRAEDYLRSTGIADTVLFGPEPEFFLFDDIRFGSSISGSHVAIDDIEGAWNSSTQYEGGNKGHRPAVKGGYFPVPPVDSAQDIRSEMCLVMEQMGLVVEAHHHEVATAGQNEVATRFNTMTKKADEIQIYKYVVHNVAHRFGKTATFMPKPMFGDNGSGMHCHMSLSKNGVNLFAGDKYAGLSEQALYYIGGVIKHAKAINALANPTTNSYKRLVPGYEAPVMLAYSARNRSASIRIPVVSSPKARRIEVRFPDPAANPYLCFAALLMAGLDGIKNKIHPGEAMDKNLYDLPPEEAKEIPQVAGSLEEALNELDLDREFLKAGGVFTDEAIDAYIALRREEDDRVRMTPHPVEFELYYSV
- stoichiometry N: 10 subunits and 8 subunits
